{"source": "paper PMC11372834", "molecular_target": "human RXFP1 (human) (UniProt Q9HBX9)", "sequence (Q9HBX9 whole entry)": "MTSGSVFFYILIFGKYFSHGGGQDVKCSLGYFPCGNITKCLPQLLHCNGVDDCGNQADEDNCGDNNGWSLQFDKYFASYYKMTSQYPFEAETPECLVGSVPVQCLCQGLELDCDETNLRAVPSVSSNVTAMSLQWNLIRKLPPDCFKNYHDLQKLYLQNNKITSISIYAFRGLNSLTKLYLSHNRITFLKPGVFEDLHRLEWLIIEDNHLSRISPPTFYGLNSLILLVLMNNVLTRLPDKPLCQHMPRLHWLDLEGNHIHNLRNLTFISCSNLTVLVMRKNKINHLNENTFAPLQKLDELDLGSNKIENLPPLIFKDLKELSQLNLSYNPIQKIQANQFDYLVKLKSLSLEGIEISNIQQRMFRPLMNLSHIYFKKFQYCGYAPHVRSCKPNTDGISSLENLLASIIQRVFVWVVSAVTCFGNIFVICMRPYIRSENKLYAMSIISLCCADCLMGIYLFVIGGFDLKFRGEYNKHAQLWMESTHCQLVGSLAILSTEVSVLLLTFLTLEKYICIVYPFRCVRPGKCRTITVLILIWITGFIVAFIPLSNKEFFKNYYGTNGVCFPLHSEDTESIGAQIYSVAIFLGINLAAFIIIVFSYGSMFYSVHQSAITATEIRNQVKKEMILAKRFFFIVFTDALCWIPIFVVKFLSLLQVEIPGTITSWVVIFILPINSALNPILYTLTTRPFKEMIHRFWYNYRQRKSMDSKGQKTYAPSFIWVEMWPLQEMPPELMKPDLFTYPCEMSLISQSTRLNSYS"}
{"substance": "native relaxin-2 (ligand)", "values": [{"measurement": "EC50, Gs signaling (CRE-SEAP, Figure 1c and Table S1)", "result": 100, "unit": "pM"}]}
